Laboratory results reported in publication PMC6098134.
pKd: −log10 of the molar value.

Biological target: recombinant basigin (CD147), immunoglobulin domains 1 and 2 of the short isoform (aa 22-205) (UniProt P35613)
Experiment: SPR; basigin immobilised on a CM5 chip by amine coupling (950 RU); RH5.1 injected as a two-fold dilution series from 2 µM, 120 s at 30 µL/min, 300 s dissociation; 20 °C; 10 mM HEPES pH 7.4, 150 mM NaCl, 3 mM EDTA, 0.005% Tween-20, 2 mg/mL dextran, 1 mg/mL salmon sperm DNA; kinetic sensorgrams fitted to a global 1:1 model

Sequence of UniProt P35613 (P35613 other isoform, or with tags, fused parts or gaps): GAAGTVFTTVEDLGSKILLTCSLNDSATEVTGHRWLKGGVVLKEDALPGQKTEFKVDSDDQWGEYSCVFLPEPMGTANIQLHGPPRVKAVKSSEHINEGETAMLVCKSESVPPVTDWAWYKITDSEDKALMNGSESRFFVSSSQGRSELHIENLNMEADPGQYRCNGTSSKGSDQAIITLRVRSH

RH5.1 protein vaccine (full-length Plasmodium falciparum reticulocyte-binding protein homolog 5, PfRH5, aa E26-Q526, with C-tag) (from UniProt Q8IFM5 26-526) (natural protein)
pKd: 5.92
